The values that follow come from US20240084044A1, “Heteromultivalent Nucleic Acid Scaffolds and Uses Thereof” (George Mason University, priority 2022, published 2024).

Bridges are numbered along the chain shown (N, C = ends). Roman numbers before positions name the chains, in order. [ ]: non-standard residue; d: D form. Lys(N3) = [N-]=[N+]=NCCCC[C@H](N)C(=O)O

In assay [1] the target is ST2/IL-33 binary complex (recombinant FLAG-tagged ST2 extracellular domain with recombinant mature IL-33) (UniProt Q01638). The experiment in a line: SPR (OpenSPR), FLAG-ST2 captured on anti-FLAG mAb and loaded with 50 nM IL-33, IL1RAcP as analyte, 1:1 fit; native IL-1RAcP as analyte.
In another assay the target is T1, ST2/IL-33 binary complex (Homo sapiens, UniProt O95760+Q01638).
T1 construct: included the extracellular domains, K19-F328 and S21-E359, respectively; the cleaved mature proteins, S112-T270, A117-S269, and R2-S310, respectively; purchased Sino Biologicals ST2 10105-HCCH; IL-33 10368-HNAE; host or cells: ST2: HEK293; IL-33: E. coli
T1 sequence (Q01638 19-328 isoform Q01638-2): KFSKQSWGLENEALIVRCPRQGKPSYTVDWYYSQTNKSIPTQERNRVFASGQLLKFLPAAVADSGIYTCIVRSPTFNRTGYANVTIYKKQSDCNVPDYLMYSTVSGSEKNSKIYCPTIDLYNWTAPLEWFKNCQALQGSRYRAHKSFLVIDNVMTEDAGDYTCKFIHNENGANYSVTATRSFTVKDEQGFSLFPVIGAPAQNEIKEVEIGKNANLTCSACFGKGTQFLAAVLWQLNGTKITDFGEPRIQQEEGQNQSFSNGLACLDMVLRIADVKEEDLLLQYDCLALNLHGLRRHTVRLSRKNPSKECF
T1 sequence (O95760 112-270): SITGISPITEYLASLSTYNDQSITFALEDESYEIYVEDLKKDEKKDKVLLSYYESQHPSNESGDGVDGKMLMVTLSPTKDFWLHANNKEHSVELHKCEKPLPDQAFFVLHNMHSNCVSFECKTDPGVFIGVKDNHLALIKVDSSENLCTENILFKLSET
Nature of the assay: SPR dissociation constant for the ST2/IL-33 binary complex. It counts as binding. The following applies: SPR, 1:1 fit; read-out: KD to the binary ST2/IL-33 complex. The source says: Recombinant ST2 with truncated FLAG (DDDDK) tag (Cat. #10105-HCCH), His-tagged IL1RAcP (Cat. #10121-H08H), IL-33 (Cat. #10368-HNAE), IL-1β (Cat. #10139-HNAE), and FLAG-tagged SIRT5 (Cat. #19202-H22E) were purchased from Sino Biologicals (Wayne, PA). ST2 and IL1RAcP were expressed in HEK293 cells and included the extracellular domains, K19-F328 and S21-E359, respectively. IL-33, IL-1β, and SIRT5 were expressed in E. coli and included the residue sequence of the cleaved mature proteins, S112-T270, A117-S269, and R2-S310, respectively. Lyophilized ST2, and IL1RAcP were reconstituted in ultrapure (18.5 MΩ) water to a concentration of 0.5 mg/mL (5.6 μM) and stored at −80° C. until use. SIRT5 was reconstituted to 0.2 mg/mL (2.87 μM). To prevent oxidation, IL-33 was reconstituted in 10 mM β-mercaptoethanol (Sigma-Aldrich) to a concentration of 0.1 mg/mL and IL-1β was reconstituted to 0.250 mg/mL. All peptides were purchased from Peptide 2.0 (Chantilly, VA) and designed based on IL1RAcP hotspot residues known to interact with IL-33/ST2 and surrounding residues based on the canonical sequence of IL1RAcP (Uniprot #Q9NPH3). All peptides were modified with acetylated N-terms and amidated C-terms to optimize stability and cyclic peptides cyclized via thioether or disulfide bond. Candidate peptides for the final molecule were also modified with an azido-Lysine and additional N-term alanine or cysteine, to provide the azide group for copper free click chemistry and maintain cyclization. Peptides were stored at −20° C. in lyophilized aliquots of 100 μg or 200 μg and −80° C. after reconstitution in sterile DMSO to a concentration of 10 mM.
SPR experiments were carried out on an OpenSPR instrument (Nicoya). Gold nanoparticle sensor chips (Nicoya) were functionalized by incubation in a solution of ethanol and 10 mM 11-Mercaptoundecanoic acid (MUDA) at RT for a minimum of 48 h, then stored in ethanol at 4° C. until use. Chips were activated with a solution of 200 mM EDC and 50 mM NHS for 3 m at RT. […] Data was analyzed with TraceDrawer software to a 1:1 fit model.

In assay [2] the target is ST2/IL-33 binary complex (recombinant FLAG-tagged ST2 extracellular domain with recombinant mature IL-33) (UniProt Q01638). The experiment in a line: SPR (OpenSPR): FLAG-ST2 captured on anti-FLAG mAb and loaded with IL-33, peptide as analyte, 1:1 fit; five sensorgrams, the highest to about 390 RU.
Assay [3] has the same target. Nature of the assay: SPR (OpenSPR): FLAG-ST2 captured on anti-FLAG mAb and loaded with IL-33, peptide as analyte, 1:1 fit; five sensorgrams, the highest to about 300 RU.
In assay [4] the target is T2, IL-33/ST2 on HEK-Blue IL-33 reporter cells (recombinant IL-33 with ST2 stably expressed on the cells), Q01638.
T2 chain 1: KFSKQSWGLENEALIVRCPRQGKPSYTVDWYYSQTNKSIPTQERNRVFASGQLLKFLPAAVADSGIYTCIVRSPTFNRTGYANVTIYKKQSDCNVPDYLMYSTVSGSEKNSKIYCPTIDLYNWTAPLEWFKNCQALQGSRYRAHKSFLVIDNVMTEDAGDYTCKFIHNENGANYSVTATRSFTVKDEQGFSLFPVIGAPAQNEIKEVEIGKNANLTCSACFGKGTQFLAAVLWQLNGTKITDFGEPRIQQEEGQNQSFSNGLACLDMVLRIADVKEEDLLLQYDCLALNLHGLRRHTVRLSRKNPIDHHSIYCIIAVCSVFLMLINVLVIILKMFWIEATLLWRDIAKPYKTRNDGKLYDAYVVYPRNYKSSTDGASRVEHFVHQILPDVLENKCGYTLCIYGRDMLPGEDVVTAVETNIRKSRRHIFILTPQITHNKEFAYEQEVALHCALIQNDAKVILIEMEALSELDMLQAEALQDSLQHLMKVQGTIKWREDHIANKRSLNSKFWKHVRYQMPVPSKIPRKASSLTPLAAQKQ
T2 chain 2: T1 sequence (O95760 112-270)
The experiment in a line: cell-based or functional assay.

For assay [5], the target named is ST2/IL-33 binary complex (recombinant FLAG-tagged ST2 extracellular domain with recombinant mature IL-33) (UniProt Q01638). Nature of the assay: SPR (OpenSPR), FLAG-ST2 captured on anti-FLAG mAb and loaded with IL-33, MSTOP as analyte, 1:1 fit; MSTOP as analyte.
For assay [6] the target is unchanged. The experiment in a line: DSS cross-linking and western blot, 100 nM MSTOP compared with 10 µM free WT peptides, competitor IL-1RAcP. (Immunoblotting shows a protein as a band on a membrane.)
The target is the same in assay [7]. The experiment in a line: DSS cross-linking and western blot, 10 µM MSTOP, competitor IL-1RAcP, normalised to the untreated trimer control.
Assay [8] shares this target. The experiment in a line: SPR (OpenSPR): FLAG-ST2 captured on anti-FLAG mAb and loaded with IL-33, MSTOP as analyte, 1:1 fit; sensorgrams to about 620 RU. The text gives 195 nM.
For assay [9] the target is unchanged. Nature of the assay: SPR (OpenSPR), KD compared.
Assay [10] has the same target. The experiment in a line: DSS cross-linking and western blot, 1 µM MSTOP, competitor IL-1RAcP.
Assay [11] shares this target. The experiment in a line: SPR (OpenSPR): FLAG-ST2 captured on anti-FLAG mAb and loaded with IL-33, peptide as analyte, 1:1 fit; five sensorgrams, the highest to about 350 RU.

For the molecule “His-tagged IL1RAcP extracellular domain (S21-E359) (from UniProt Q9NPH3 21-359) (receptor)”, the Kd in assay [1] is 10 µM.
As for “IL-1RAcP: recombinant His-tagged IL-1 receptor accessory protein extracellular domain S21-E359”, the Kd in the assay with ST2/IL-33 binary complex worked out at 10 µM.

B1: K343/K346 Ac-C-K(N3)-…-NH2 (S-S) (peptide)
peptide: Ac-C[Lys(N3)]GEVAKAAKVKC-NH2
modifications: disulfide 1-13
SMILES: CC(=O)N[C@H]1CSSC[C@@H](C(N)=O)NC(=O)[C@H](CCCCN)NC(=O)[C@H](C(C)C)NC(=O)[C@H](CCCCN)NC(=O)[C@H](C)NC(=O)[C@H](C)NC(=O)[C@H](CCCCN)NC(=O)[C@H](C)NC(=O)[C@H](C(C)C)NC(=O)[C@H](CCC(=O)O)NC(=O)CNC(=O)[C@H](CCCCN=[N+]=[N-])NC1=O
Take B1: the Kd in assay [2] is 47 µM.

B2: R157 Ac-C-K(N3)-…-NH2 (S-S) (peptide)
peptide: Ac-C[Lys(N3)]EYGIQRITC-NH2
modifications: disulfide 1-11
SMILES: CC[C@H](C)[C@@H]1NC(=O)CNC(=O)[C@H](Cc2ccc(O)cc2)NC(=O)[C@H](CCC(=O)O)NC(=O)[C@H](CCCCN=[N+]=[N-])NC(=O)[C@@H](NC(C)=O)CSSC[C@@H](C(N)=O)NC(=O)[C@H]([C@@H](C)O)NC(=O)[C@H]([C@@H](C)CC)NC(=O)[C@H](CCCNC(=N)N)NC(=O)[C@H](CCC(N)=O)NC1=O
On to B2, for which the Kd in assay [3] was 57 µM.

B3: MSTOP prototype (Multivalent Specific Topology-targeting DNA-Origami Peptide Inhibitor): 3-way junction DNA scaffold carrying three cyclized azidolysine … (designed binder)
peptide 1: Ac-CKEYGIQRITC-NH2
peptide 2: Ac-AKVGSPKNAVPPC-NH2
peptide 3: Ac-CKGEVAKAAKVKC-NH2
modifications: disulfide I:1-I:11, III:1-III:13; thioether II:1-II:13; not fully specified (some residues); also: three peptides held on a 3-way junction DNA scaffold via DBCO staple strands
In the case of B3, in assay [4], the IL-33 induced SEAP expression (HEK-Blue IL-33 reporter cells, 1 µM MSTOP) was found to be 40 % reduction. In addition, the values for the Kd in [5] and in [8] were 195 nM and 127 nM, respectively. Besides, the fold increase in efficiency against the 10 µM WT peptide treatment in [6] worked out at 100 fold. Moreover, in assay [7], the reduction in trimer formation worked out at 70%. In addition, in assay [9], the fold increase in affinity compared to the individual peptides and IL-1RAcP stood at 100 fold. In addition, the reduction of trimer formation in assay [10] amounted to 40%.

B4: K238 Ac-A-K(N3)-…-NH2 (S) (peptide)
peptide: Ac-A[Lys(N3)]VGSPKNAVPPC-NH2
modifications: thioether 1-13
SMILES: CC(=O)N[C@H]1CSC[C@@H](C(N)=O)NC(=O)[C@@H]2CCCN2C(=O)[C@@H]2CCCN2C(=O)[C@H](C(C)C)NC(=O)[C@H](C)NC(=O)[C@H](CC(N)=O)NC(=O)[C@H](CCCCN)NC(=O)[C@@H]2CCCN2C(=O)[C@H](CO)NC(=O)CNC(=O)[C@H](C(C)C)NC(=O)[C@H](CCCCN=[N+]=[N-])NC1=O
Regarding B4, the Kd in [11] worked out at 105 µM.
